Consider 2 molecules from patent publication US20230192897A1 (NUMAB THERAPEUTICS, published 2023).

Several values for one entry are separate records, joined by “and”; a condition that tells them apart may be missing. Identical values can stand only once. Like-named read-outs stand apart in the source and are kept apart here.

Experiment [1] concerns the target T1, CD137 on Jurkat NFkB reporter cells (human, UniProt Q07011 24-255). In words: cell-based or functional assay.
The target of experiment [2] is T1, CD137 on Jurkat NFkB reporter cells. Nature of the experiment: cell-based or functional assay. The source holds these as a separate data set.
Experiment [3] has as its target T2, biotinylated human PDL1 (human, UniProt Q9NZQ7 19-238, limits assumed, biotinylated).
T2 construct: also called biotinylated PDL1
Nature of the experiment: competition ELISA B7.1/PDL1. The gist of the method:
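Test mixtures containing biotinylated human PDL1 were pre-incubated 1 h at room temperature, then incubated 1.5 h on the plate under agitation. Bound PDL1 detected with 10 ng/ml streptavidin-polyHRP40 and TMB, stopped at 6 min with HCl, read at 450 nm minus 690 nm. IC₅₀ from 4PL fit.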

In experiment [4] the target is T3, human CD137 extracellular domain (human, UniProt Q07011 24-186).
T3 construct: also called CD137 (PeproTech, cat. 310-15)
Nature of the experiment: SPR, IgG format captured. How it is done:
(§1) Affinity to PDL1 of the different species was determined by SPR measurements using a Biacore T200 device (GE Healthcare). An antibody specific for the Fc region of human IgGs was immobilized on a sensor chip (CM5 sensor chip, GE Healthcare) by amine-coupling. For all formats, with the exception of the Fc containing Morrison formats, PDL1-Fc chimeric protein from different species were captured by the immobilized antibody.
(§2) The Fc containing formats were directly captured by the antibody specific for the Fc region of human IgGs. Two-fold serial dilutions of PDL1 extracellular domain or CD137 extracellular domain ranging from 90 to 0.35 nM were tested for binding to the IgG captured on the biosensor chip. After each injection cycle, surfaces were regenerated with one injection of a 3 M MgCl2 solution.

For experiment [5], the target named is human PDL1 extracellular domain (human, UniProt Q9NZQ7 19-238). In words: SPR, IgG format captured. How it is done: as §1, §2
The target of experiment [6] is human PDL1 on cells (human, UniProt Q9NZQ7 19-290). Nature of the experiment: cell-based or functional assay.
Experiment [7] has as its target T2, biotinylated human PDL1. Nature of the experiment: competition ELISA PD-1/PDL1. A general note: An ELISA detects its analyte on a solid surface through an enzyme-linked reagent.

In experiment [1], urelumab (antibody) registered an EC50, NFkB reporter, CHO-PDL1 of 0.0791 µg/mL; an EC50, NFkB reporter, CHO-PDL1, 6 h of 0.0565 µg/mL; an EC50, NFkB reporter, CHO-PDL1, 6 h, +HSA of 0.0777 µg/mL; an EC50, NFkB reporter, CHO-PDL1, 24 h of 0.0466 µg/mL. In addition, in experiment [1], the EC50, NFkB reporter, CHO-PDL1, 24 h, +HSA turned out to be 0.0782 µg/mL; the EC50, NFkB reporter, HCC827 with IFNg was 0.114 µg/mL and 0.145 µg/mL and 0.108 µg/mL; the EC50, NFkB reporter, HCC827 with IFNg, 24 h amounted to 0.0528 µg/mL; the EC50, NFkB reporter, HCC827 without IFNg was 0.212 µg/mL and 0.11 µg/mL and 0.112 µg/mL. In experiment [1], this molecule came in with an EC50, NFkB reporter, HCC827 without IFNg, 24 h of 0.0475 µg/mL; a Top of curve fit, NFkB reporter, CHO-PDL1 of 102; a Top of curve fit, NFkB reporter, HCC827 with IFNg of 100; a Top of curve fit, NFkB reporter, HCC827 without IFNg of 100. For the same molecule, in experiment [2], the EC50, NFkB reporter, CHO-PDL1 is 0.0795 µg/mL and 0.104 µg/mL and 0.0865 µg/mL; the Top of curve fit, NFkB reporter, CHO-PDL1 was found to be 100.

B1: PRO1062 (bispecific antibody, human IgG1, kappa, L234A L235A)
light: DIQMTQSPSSLSASVGDRVTITCQASQSINDYLAWYQQKPGKAPKLLIYKASTLASGVPSRFSGSGSGTDFTLTISSLQPEDFATYYCQQGYIITDIDNVFGTGTKVTVLGTVAAPSVFIFPPSDEQLKSGTASVVCLLNNFYPREAKVQWKVDNALQSGNSQESVTEQDSKDSTYSLSSTLTLSKADYEKHKVYACEVTHQGLSSPVTKSFNRGEC
heavy: QVQLQESGPGLVKPSETLSLTCKVSGFSFSSGYDMCWIRQPPGKGLEWIGCVVAGSVDITYYASWAKGRVTISVDSSKNQFSLKLSSVTAADTAVYYCARKDAYSDAFNLWGQGTLVTVSSASTKGPSVFPLAPSSKSTSGGTAALGCLVKDYFPEPVTVSWNSGALTSGVHTFPAVLQSSGLYSLSSVVTVPSSSLGTQTYICNVNHKPSNTKVDKRVEPKSCDKTHTCPPCPAPEAAGGPSVFLFPPKPKDTLMISRTPEVTCVVVDVSHEDPEVKFNWYVDGVEVHNAKTKPREEQYNSTYRVVSVLTVLHQDWLNGKEYKCKVSNKALGAPIEKTISKAKGQPREPQVYTLPPSREEMTKNQVSLTCLVKGFYPSDIAVEWESNGQPENNYKTTPPVLDSDGSFFLYSKLTVDKSRWQQGNVFSCSVMHEALHNHYTQKSLSLSPGKGGGGSGGGGSIQMTQSPSSLSASVGDRVTITCQASQSINNVLAWYQQKPGKAPKLLIYRASTLASGVPSRFSGSGSGTDFTLTISSLQPEDFATYYCQSSYGNYGDFGTGTKVTVLGGGGGSGGGGSGGGGSGGGGSQVQLQESGPGLVKPSETLSLTCKVSGFSFSNSYWICWIRQPPGKGLEWIGCTFVGSSDSTYYANWAKGRVTISVDSSKNQFSLKLSSVTAADTAVYYCARHPSDAVYGYANNLWGQGTLVTVSS
notes: also called 33-03-G02 sc01 IgG1 HC with 38-27-C05 sc01 scFv; Morrison-H
By IC50 is commonly meant the concentration at which inhibition is half-maximal. Lower therefore signals higher potency. Broadly, the Kd is the equilibrium constant for the complex coming apart. The low end stands for higher affinity, the high end for lower affinity. As a reminder, the koff is the rate constant with which the complex falls apart. Read a high koff as a short-lived complex. A word on the kon: it is the second-order rate constant of association. A lower kon goes with slower complex formation. Regarding B1, in experiment [3], the IC50 was 0.0195 µg/mL and the “rel. IC50 (IC50 avelumab/IC50 test)” value worked out at 0.51 fold. In experiment [4], this molecule had a Kd of 1.3 nM, a koff of 0.00037 s⁻¹ and a kon of 280000 M⁻¹ s⁻¹. The same molecule yielded a koff in experiment [5] of 5e-05 s⁻¹. In experiment [1], the EC50, NFkB reporter, CHO-PDL1, 6 h amounted to 0.0522 µg/mL; the EC50, NFkB reporter, CHO-PDL1, 24 h came to 0.0869 µg/mL; the IC50 (ng/ml), NFkB reporter, CHO-PD-L1, 24 h was determined as 86.9 ng/mL; the max. activation (%), NFkB reporter, CHO-PD-L1, 24 h worked out at 134%. In experiment [1], this molecule had a rel. IC50 (urelumab/test), NFkB reporter, CHO-PD-L1, 24 h of 0.54 fold. Also, in experiment [6], the IC50 (ng/ml), NF-AT potency assay came to 96.5 ng/mL and the rel. IC50 (avelumab/test) was 0.68 fold. Moreover, in experiment [7], the IC50 came to 0.0113 µg/mL and the “rel. IC50 (IC50 avelumab/IC50 test)” value is 0.32 fold.
